From article PMC9830914, “Differential effects of mutations of POPDC proteins on heteromeric interaction and membrane trafficking” (Acta Neuropathologica Communications, 2023)

How the values were obtained:
POPDC1-VC155 (human) = POPDC1-VC155 (human) (UniProt Q8NE79); experiment: split reporter (BiFC, NanoBiT); BiFC in HEK293 cells, split Venus VC155 on POPDC1 and VN155 on POPDC2; Venus signal normalised to co-transfected mRFP and to the wild-type pair (set to 1); conditions: scale: relative to the wild-type pair
POPDC1 p.S201F-VC155 = target: T1, POPDC1 p.S201F-VC155 (human, UniProt Q8NE79 1-360, p.S201F); experiment: as above; conditions: partners not purified
T1 construct: POPDC1 (BVES), human, full-length cDNA with the patient variant p.S201F; source: HEK293, transfected, in cells; not shown: split Venus VC155, C-terminal, kept
T1 sequence (looked up): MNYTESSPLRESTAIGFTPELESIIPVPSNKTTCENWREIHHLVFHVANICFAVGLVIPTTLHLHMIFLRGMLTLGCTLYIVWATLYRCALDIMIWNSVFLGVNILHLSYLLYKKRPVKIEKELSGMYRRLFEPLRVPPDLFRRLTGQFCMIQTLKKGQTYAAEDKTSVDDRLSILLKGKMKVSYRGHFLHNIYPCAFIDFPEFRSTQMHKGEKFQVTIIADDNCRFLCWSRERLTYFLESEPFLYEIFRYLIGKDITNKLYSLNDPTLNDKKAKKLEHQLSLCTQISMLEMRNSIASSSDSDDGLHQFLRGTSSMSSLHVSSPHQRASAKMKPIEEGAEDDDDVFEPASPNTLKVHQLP

[1] = target: POPDC1 p.Q153X-VC155 (human) (UniProt Q8NE79); experiment: as above; conditions: scale: relative to the wild-type pair
[2] = target: the molecule itself; experiment: SDS-PAGE and Western blot of oligomer bands; COS-7 cells lysed in 4 M urea and 10% SDS without a reducing agent; anti-GFP antibody detects complexes that hold POPDC1-CFP
[3] = target: the molecule itself; experiment: FRET or BRET; type-1 quantitative NanoBRET in HEK293 cells; C-terminal NanoLuc and HaloTag (HaloTag-618 dye); expression ratios varied at constant total expression; curves compared to ideal curves for monomers, dimers and other stoichiometries

POPDC2 p.W188X-VN155 (from UniProt Q9HBU9 1-187) (domain or fragment)
BiFC signal relative to the wild-type pair (POPDC1-VC155 (human)): 0.59

B1: POPDC2-VN155 (natural protein, human, UniProt Q9HBU9 1-364, looked up)
chain: MSANSSRVGQLLLQGSACIRWKQDVEGAVYHLANCLLLLGFMGGSGVYGCFYLFGFLSAGYLCCVLWGWFSACGLDIVLWSFLLAVVCLLQLAHLVYRLREDTLPEEFDLLYKTLCLPLQVPLQTYKEIVHCCEEQVLTLATEQTYAVEGETPINRLSLLLSGRVRVSQDGQFLHYIFPYQFMDSPEWESLQPSEEGVFQVTLTAETSCSYISWPRKSLHLLLTKERYISCLFSALLGYDISEKLYTLNDKLFAKFGLRFDIRLPSLYHVLGPTAADAGPESEKGDEEVCEPAVSPPQATPTSLQQTPPCSTPPATTNFPAPPTRARLSRPDSGILASRIPLQSYSQVISRGQAPLAPTHTPEL
notes: POPDC2, human, full-length wild-type cDNA; also called wild-type POPDC2 with split Venus VN155; source: HEK293, transfected, in cells; not shown: split Venus VN155, C-terminal, kept
BiFC signal relative to the wild-type pair (POPDC1 p.S201F-VC155): 0.43 relative to the wild-type pair (set to 1)
BiFC signal relative to the wild-type pair [1]: 0.248

B2: POPDC1-CFP (natural protein, human, UniProt Q8NE79 1-360, looked up)
chain: MNYTESSPLRESTAIGFTPELESIIPVPSNKTTCENWREIHHLVFHVANICFAVGLVIPTTLHLHMIFLRGMLTLGCTLYIVWATLYRCALDIMIWNSVFLGVNILHLSYLLYKKRPVKIEKELSGMYRRLFEPLRVPPDLFRRLTGQFCMIQTLKKGQTYAAEDKTSVDDRLSILLKGKMKVSYRGHFLHNIYPCAFIDSPEFRSTQMHKGEKFQVTIIADDNCRFLCWSRERLTYFLESEPFLYEIFRYLIGKDITNKLYSLNDPTLNDKKAKKLEHQLSLCTQISMLEMRNSIASSSDSDDGLHQFLRGTSSMSSLHVSSPHQRASAKMKPIEEGAEDDDDVFEPASPNTLKVHQLP
notes: POPDC1 (BVES), human, full length cDNA in pECFP-N1; printed molecular weight of POPDC1 41.5 kDa; also called POPDC1-ECFP; source: COS-7, transfected, in lysate (4 M urea, 10% SDS, no reducing agent); not shown: CFP, C-terminal, kept
stoichiometry N [2]: 2

B3: POPDC1 with C-terminal NanoLuc or HaloTag (NanoBRET constructs) (natural protein, human, UniProt Q8NE79 1-360, looked up)
chain: MNYTESSPLRESTAIGFTPELESIIPVPSNKTTCENWREIHHLVFHVANICFAVGLVIPTTLHLHMIFLRGMLTLGCTLYIVWATLYRCALDIMIWNSVFLGVNILHLSYLLYKKRPVKIEKELSGMYRRLFEPLRVPPDLFRRLTGQFCMIQTLKKGQTYAAEDKTSVDDRLSILLKGKMKVSYRGHFLHNIYPCAFIDSPEFRSTQMHKGEKFQVTIIADDNCRFLCWSRERLTYFLESEPFLYEIFRYLIGKDITNKLYSLNDPTLNDKKAKKLEHQLSLCTQISMLEMRNSIASSSDSDDGLHQFLRGTSSMSSLHVSSPHQRASAKMKPIEEGAEDDDDVFEPASPNTLKVHQLP
modifications: HaloTag-618 dye on the HaloTag copy
notes: POPDC1 (BVES), human cDNA cloned into pFC14K (HaloTag) or pFC32K (NanoLuc); Two differently tagged copies of one protein, written as one molecule: each copy carries only one of the two tags; With POPDC2-NL the HaloTag copy was used; also called POPDC1-NL; POPDC1-HT; source: HEK293, transiently transfected, in live cells; not shown: NanoLuc (on the copy POPDC1-NL), C-terminal, kept; HaloTag (on …)
stoichiometry N [3]: 2
